Where two headings read alike, the source gives them in different places.

The values below come from patent US20260193317A1, “COMBINATION THERAPY WITH ACTRIIB RECEPTOR VARIANTS AND GLP-1 AGONISTS” (35PHARMA Inc., priority 2023, published 2026).

The nature of data set [1]: Single subcutaneous injection in CD-1 mice: body weight. The data set is classed as in vivo. The conditions noted are these: CD-1 male mice, single s.c. injection; P1229 50 mg/kg, semaglutide 2 mg/kg.
For data set [2] the following is noted: mouse, in vivo, sc.
Protocol: Evaluation of pharmacokinetic profiles.
To determine the concentration of P1229 in mouse serum samples, a 96-well plate was coated 1 h at RT with a solution of anti-ectodomain antibody (1 μg/mL in carbonate buffer, 100 μL/well). The plate was then washed three times with buffer (Biolegend #421601). Blocking buffer (1% BSA, 0.05% tween-20 in TBS, 300 μL/well) was added to each well and the plate was incubated for 1 hour at RT with shaking at 300 rpm. The plate was washed three times and Standards, QCs and sample were diluted in assay diluent (1% BSA, 0.05% tween-20 in TBS, 100 μL/well) and loaded in duplicate on the plate for 1 h30 at RT with shaking at 300 rpm. The plate was washed three times and a solution of anti-human Fc antibody conjugated to HRP (Southern Biotech #2049-05, diluted 1 in 20,000 in assay diluent, 100 μL/well) was added to each well and incubated for 1 h at RT with shaking at 300 rpm.
Data set [3] can be described thus: Single-injection body weight gain in wild-type mice. It counts as in vivo. The conditions noted are these: single 25 mg/kg subcutaneous injection, after 4 days, vs vehicle. The protocol: To investigate the target engagement of exemplary ActRIIB-ECD polypeptide constructs in vivo, mice (n=6/group) were injected with given agents (25 mg/kg, subcutaneous injection), and sacrificed after 4 days to assess body weight gain.

Data set [4] concerns diet-induced obese (DIO) mice. The experiment in a line: Body composition and metabolism in diet-induced obese (DIO) mice. It counts as in vivo. The protocol:
(§1) Experiments were performed to assess the effects of P1229 on body composition and metabolism in diet-induced obese (DIO) mice. DIO mice were purchased from Jackson Laboratories (#380050). Briefly, mice were fed a high-fat diet (HFD, 60% kcal from fat) from 6 weeks of age until 22 weeks of age (total of 16 weeks on the HFD). […] After 3 weeks of treatments, some animals were sacrificed and scanned by EchoMRI […] (FIGS. 11A-F), while others were sacrificed for tissue collection and RNA analysis. Animals were maintained on the HFD throughout the acclimatization and treatment periods. The murine version of bimagrumab used for these experiments comprises the heavy chain amino acid sequence of SEQ ID NO: 376 and the light chain sequence of SEQ ID NO: 377.

The subject of data set [5] is follicle-stimulating hormone (FSH). The data set is described as follows: FSH production in DIO mice. The data set is classed as in vivo. The conditions noted are these: 3 weeks of treatment. The protocol: as §1
Follicle-stimulating hormone (FSH) is a known biomarker of in vivo target engagement for activin receptor-based traps (See Attie et al. (2013). Muscle Nerve, 47: 416-423). To further validate in vivo target engagement for exemplary agents, FSH production was evaluated in DIO mice, as described above.

Data set [6] has as its target T1, activin A (Homo sapiens, UniProt P08476).
T1 sequence (P08476 311-426): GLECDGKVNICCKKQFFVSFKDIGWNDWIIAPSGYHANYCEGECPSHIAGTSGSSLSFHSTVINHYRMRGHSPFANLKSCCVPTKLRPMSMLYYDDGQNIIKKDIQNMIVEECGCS
The experiment in a line: Small-scale activin A ELISA with CHO supernatants. Particulars: 1 μg/mL protein, 30 ng/mL activin A, loss of signal = binding. As to the method:
Small-scale testing of ActRIIB-ECD fusion proteins. Additional investigation of a series of exemplary agents was performed using proteins expressed in CHO cells. Briefly, DNA encoding the ActRIIB-ECD-Fc fusion constructs was transfected in cells seeded in 12-well plates in a final volume of 1 ml. After 7 days, the supernatant was harvested, clarified, and the amount of expressed protein in each well was quantified using standard methods. The potency of each agent for inhibition of activin A, BMP-9 and BMP-10 was determined in three separate assays.
The next day, the plate was washed three times with buffer (Biolegend #421601). […] Expressed proteins in the supernatants described above were diluted to 2 μg/mL in assay diluent (0.5% BSA, 0.05% tween-20 in PBS), mixed 1:1 with recombinant human activin A (R&D #338-AC, 60 ng/mL, diluted in assay diluent). Complexes were immediately added to the 96-well plate in technical duplicates and incubated for 1 h at RT (concentration of expressed protein and activin A on the plate were 1 μg/mL and 30 ng/mL, respectively). […] In this assay, a loss of signal indicates binding of the exemplary agent to activin A, which prevents activin A binding to the anti-activin A antibody on the plate. Results are expressed as a % of the signal obtained with wild-type ActRIIB-Fc (P75).
Background: In an ELISA, binding on a coated surface is turned into a signal by an enzyme label.

In data set [7] the target is T1, activin A. The experiment in a line: TGFβ-reporter HEK293 cell-based assay: activin A neutralization. The conditions noted are these: for IC50: read-out: CBA Potency Activin A; for CBA potency Activin A, potency fold-change: relative to reference (P1372 = 1). The protocol: Potency testing by neutralization on cell-based assays. Characterization of the activin A, activin B, GDF-8, and GDF-11 inhibition potency (IC50) of the fusion proteins was performed using a cell-based reporter assay. TGFβ-reporter HEK293 cells were obtained from InvivoGen (San Diego, CA, cat. no. hkb-tgfb) and were maintained following the manufacturer's instructions. Briefly, cells were grown in high-glucose DMEM, containing 10% heat-inactivated FBS, 30 μg/mL blasticidin, 250 μg/mL hygromycin B, and 100 μg/mL zeocin (hereafter, “growth medium”). Once the cells reached 70-80% confluence, they were detached in growth medium by gently tapping on the flask. For all assays, cells were seeded in 96-well plates at a density of 20,000 cells per well in growth medium. Cells were left to attach for 10 minutes at room temperature (RT) prior to being transferred to a 37° C. incubator (5% CO2) overnight. The next day, treatments were prepared by combining the appropriate concentration of agent with activin A, activin B, GDF-8, or GDF-11 for 30 min at RT (shaking at 150 rpm). Treatments were conducted in high-glucose DMEM (serum-free and with no selection agents), and the final concentration of cytokine (ligand) was 0.3 nM. Growth medium was removed from the culture plates, and cells were treated with the appropriate mixes of fusion protein and cytokine. Treatment duration was for 18-22 h at 37° C. (5% CO2). All treatments were performed in technical duplicates and at least one or two independent experiments were conducted for each cytokine. At the end of the treatment period, supernatants were transferred to a new plate, and centrifuged at 300 RPM for 3 min. Forty microlitres of supernatant from each condition was transferred to a new plate, into which 180 μL of Quanti-Blue reagent (InvivoGen, cat. no. rep-qbs) was added. Quanti-Blue reagent was prepared following the manufacturer's instructions. Samples were incubated for 45 min at 37° C. At the end of the incubation, absorbance was read at 650 nm. The data were plotted in GraphPad Prism, which was used to calculate IC50 values as a non-linear regression.

Data set [8] concerns the target T1, activin A. The data set is described as follows: Potency testing by ELISA: activin A binding. The conditions noted are these: for ELISA potency Activin A, potency fold-change: relative to reference (P1372 = 1). An excerpt: Potency testing by ELISA. […] The next day, the plate was washed three times with buffer (Biolegend #421601).
[9] abbreviates: D 7 after storage at room temperature.
[10] abbreviates: D 28, storage at room temperature.

In the case of “P1229: hActRIIB L33W, 14 aa linker, IgG1-DL Fc; SEQ ID 211”, in data set [1], the body weight entry is recorded as “increased body weight”. Also, the “PK profile alone versus in the co-formulation” value in data set [2] is on record as “comparable PK profile”. Besides, in data set [3], the body weight gain result is listed as “apparent body weight gain that did not reach statistical significance”. Moreover, in data set [4], the “hepatic Ahsg expression” value is recorded as “reduced Ahsg expression” and the “hepatic Fgf21 expression” value is recorded as “reduced”. Further, in data set [4] (3 weeks), the “Mss51 gene expression in gastrocnemius muscle” value is “reduced Mss51 gene expression” and the “ratio of lean mass to fat mass” value was “higher”. For the same molecule, in data set [4] (3 weeks s.c., P75, P1229 25 mg/kg twice weekly, P1373 5, 20, 50 mg/kg twice weekly, P1307 20 mg/kg weekly), the “fat mass and lean mass (EchoMRI)” value is on record as “fat loss with concomitant lean mass gain”. For the same molecule, the FSH production entry in data set [5] is “significant decreases in FSH production”. The “activin A binding, ELISA signal relative to P75” value with activin A [6] is listed as “potent activin A binding”.

B1: P1372: hActRIIB L33W, 14 aa linker, IgG1 YTE-DL Fc; SEQ ID 231 (protein)
chain: ETRECIYYNANWELERTNQSGLERCEGEQDKRWHCYASWRNSSGTIELVKKGCWLDDFNCYDRQECVATEENPQVYFCCCEGNFCNERFTHLPEAGGPEVTYEPPPTGGGGSGGGGSGGGGTHTCPPCPAPELLGGPSVFLFPPKPKDTLYITREPEVTCVVVDVSHEDPEVKFNWYVDGVEVHNAKTKPREEQYNSTYRVVSVLTVLHQDWLNGKEYKCKVSNKALPAPIEKTISKAKGQPREPQVYTLPPSRDELTKNQVSLTCLVKGFYPSDIAVEWESNGQPENNYKTTPPVLDSDGSFFLYSKLTVDKSRWQQGNVFSCSVMHEALHNHYTQKSLSLSPG
With B1, the “CBA potency Activin A, fold-change vs reference” value in the data set with activin A [7] (D 0), in the data set with activin A [7] (D 7 after storage at 2-8° C.) and in the data set with activin A [7] (setting [9]) was 1 (ref) throughout. Also, the IC50 in the data set with activin A [7] (D 0) is 0.59 nM; with activin A [7] (D 7, 2-8° C.) it was 0.81 nM; in the data set with activin A [7] (D 7, RT) it was 0.78 nM; with activin A [7] (D 14, 2-8° C.), 0.63 nM; with activin A [7] (D 14, RT), 0.74 nM; with activin A [7] (D 28, 2-8° C.), 0.99 nM. Also, the IC50 with activin A [7] (D 28, RT) stood at 0.9 nM; in the data set with activin A [7] (D 56, RT), 1.1 nM. Moreover, the “CBA potency Activin A, potency fold-change” value with activin A [7] (D 28, storage at 2-8° C.) is listed as 1 (ref) fold; with activin A [7] (setting [10]), 1 (ref) fold. Besides, the “ELISA potency Activin A, fold-change vs reference” value in the data set with activin A [8] (D 0), in the data set with activin A [8] (D 7 after storage at 2-8° C.) and with activin A [8] (setting [9]) was 1 (ref) each time. The “ELISA potency Activin A, potency fold-change” value with activin A [8] (D 28, storage at 2-8° C.) is reported as 1 (ref) fold; with activin A [8] (setting [10]) it was 1 (ref) fold.
